Series [1] has as its target T1, CD19 on transfected COS-7 cells (human) (UniProt P15391).
T1 sequence: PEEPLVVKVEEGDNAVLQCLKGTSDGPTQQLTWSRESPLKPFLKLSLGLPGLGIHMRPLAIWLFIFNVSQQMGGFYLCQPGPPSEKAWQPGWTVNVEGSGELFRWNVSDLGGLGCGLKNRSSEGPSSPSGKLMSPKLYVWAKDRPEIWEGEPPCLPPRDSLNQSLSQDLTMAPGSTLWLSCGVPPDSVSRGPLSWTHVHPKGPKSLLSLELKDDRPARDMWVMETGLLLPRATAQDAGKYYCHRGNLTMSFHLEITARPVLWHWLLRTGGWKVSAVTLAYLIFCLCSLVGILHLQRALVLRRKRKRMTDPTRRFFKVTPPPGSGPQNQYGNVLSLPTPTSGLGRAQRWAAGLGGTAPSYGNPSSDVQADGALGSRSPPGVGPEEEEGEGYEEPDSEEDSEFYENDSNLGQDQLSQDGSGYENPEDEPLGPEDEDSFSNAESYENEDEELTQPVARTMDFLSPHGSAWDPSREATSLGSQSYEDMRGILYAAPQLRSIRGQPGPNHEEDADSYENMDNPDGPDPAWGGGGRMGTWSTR
Put plainly: cell binding RT-qPCR. Particulars: 200 nM aptamer, poly(I); 2'-fluoro pyrimidines; BLI: running buffer not stated (tips prehydrated in PBS), temperature not stated; cell binding: serum-free medium, 37 C, 30 min, with poly(I) 0.1 ug/uL (qPCR) …. (In general: Quantitative PCR measures a nucleic acid by following its amplification.)

Series [2] concerns the target T2, endogenous CD19 of MEC-1 cells (human (MEC-1 B-CLL cell line)) (UniProt P15391).
T2 sequence: T1 sequence
The series is described as follows: flow cytometry. Conditions: 2'-fluoro pyrimidines; BLI: running buffer not stated (tips prehydrated in PBS), temperature not stated; cell binding: serum-free medium, 37 C, 30 min, with poly(I) 0.1 ug/uL (qPCR) …. Background: Flow cytometry measures light scatter and fluorescence of single cells or particles in a stream.

In series [3] the target is T3, rhCD19 (recombinant human CD19, extracellular domain) (human, UniProt P15391 20-291). The series is described as follows: BLI; up to 1 uM aptamer; BLI: running buffer not stated (tips prehydrated in PBS), temperature not stated; cell binding: serum-free medium, 37 C, 30 min, with poly(I) 0.1 ug/uL (qPCR) or tRNA 0.4 ug/uL plus 100 nM Ctrl Apt (FACS); pull-down lysis: 10 mM Tris-HCl pH 7.5, 200 mM NaCl, 5 mM EDTA, 0.1% Triton X-100. Conditions: protein: recombinant. Background: Biolayer interferometry detects binding as a change in optical thickness at a sensor tip.

The target in series [4] is rhBCMA (B Cell Maturation Antigen) (human, UniProt Q02223 1-54). The description is as above. Conditions: protein: recombinant.
For series [5], the target named is T3, rhCD19 (recombinant human CD19, …). The series is described as follows: BLI; 2.5-100 nM aptamer; BLI: running buffer not stated (tips prehydrated in PBS), temperature not stated; cell binding: serum-free medium, 37 C, 30 min, with poly(I) 0.1 ug/uL (qPCR) or tRNA 0.4 ug/uL plus 100 nM Ctrl Apt (FACS); pull-down lysis: 10 mM Tris-HCl pH 7.5, 200 mM NaCl, 5 mM EDTA, 0.1% Triton X-100. Particulars: protein: recombinant.

This is an account of results in PMC8533794, “Selection of a Nuclease-Resistant RNA Aptamer Targeting CD19”.

Chain of rhBCMA (B Cell Maturation Antigen) (Q02223 1-54): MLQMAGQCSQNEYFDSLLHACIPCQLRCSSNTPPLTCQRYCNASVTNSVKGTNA

On to CCUGUUGUUCGACAGGAGGCUCACAACAGG [B88.T2], for which the binding signal (fold over parental COS-7) in series [1] was found to be 7.

On to “UGAGCCCUGUUCGACAGGAGGCUCA [B85.T2 (FAM)]”, for which the binding signal (fold over Jurkat) in series [2] came to 2.

Turning to UGAGCCCUGUUCGACAGGAGGCUCA [B85.T2], in series [1], the binding signal (fold over parental COS-7) amounted to 22.

UUCGUACCGGGUAGGUUGGCUUGCACAUAGAACGUGUCA (structured_RNA, 2'-fluoro pyrimidines) [Ctrl Apt]: in series [3], the binding result is listed as “no binding”.

A word on the Kd: it is the constant that tells how readily two partners part at equilibrium. Turning to UGAGCCCUGUUCGACAGGAGGCUCA (structured_RNA, 2'-fluoro pyrimidines) [B85.T2], in series [4], the binding result is listed as “no binding”. The Kd in series [5] came to 49.9 ± 13 nM.
